Test results taken from FireProtDB (doi:10.1074/jbc.m110728200).

B1: Lysozyme C, P61626 (parent)
chain: MKALIVLGLVLLSVTVQGKVFERCELARTLKRLGMDGYRGISLANWMCLAKWESGYNTRATNYNAGDRSTDYGIFQINSRYWCNDGKTPGAVNACHLSCSALLQDNIADAVACAKRVVRDPQGIRAWVAWRNRCQNRDVRQYVQGCGV

Variants of: B1
Conditions: Homo sapiens; pH 2.61; Thermal; DSC; Gly-HCl 0.05 M; structure 1LZ1; whole UniProt chain shown

Row | Variant | Tm | unfolding enthalpy (calorimetric) | unfolding enthalpy (van 't Hoff)
1 | MKALIVLGLVLLSVTVQGKVFERCELARTLKRLGMDGYRGISLANWMCLAKWESGYNTRATNYNAGDRSTDYGIFQINSRYWCNDGKTPGASNACHLSCSALLQDNIADAVACAKRVVRDPQGIRAWVAWRNRCQNRDVRQYVQGCGV | 62.1 °C | 105 kcal/mol | 110 kcal/mol

Same assay, conditions: Homo sapiens; pH 2.7; 64.9 °C; Thermal; DSC; Gly-HCl 0.05 M; structure 1LZ1; whole UniProt chain shown

Row | Variant | ddG of mutation (higher = less stable) | heat capacity change of unfolding | unfolding enthalpy (calorimetric)
2 | MKALIVLGLVLLSVTVQGKVFERCELARTLKRLGMDGYRGISLANWMCLAKWESGYNTRATNYNAGDRSTDYGIFQINSRYWCNDGKTPGASNACHLSCSALLQDNIADAVACAKRVVRDPQGIRAWVAWRNRCQNRDVRQYVQGCGV | 0.38 kcal/mol | 1.22 kcal/mol/K | 108 kcal/mol
3 | MKALIVLGLVLLSVTVQGKVFERCELARTLKRLGMDGYRGISLANWMCLAKWESGYNTRATNYNAGDRSTDYGIFQINSRYWCNDGKTPGADNACHLSCSALLQDNIADAVACAKRVVRDPQGIRAWVAWRNRCQNRDVRQYVQGCGV | 0.43 kcal/mol | 1.58 kcal/mol/K | 107 kcal/mol

Same assay, conditions: Homo sapiens; pH 2.7; Thermal; DSC; Gly-HCl 0.05 M; structure 1LZ1; whole UniProt chain shown

Row | Variant | Tm | change of melting temperature, mutant - wild type (higher = more stable) | heat capacity change of unfolding | unfolding enthalpy (calorimetric)
4 | MKALIVLGLVLLSVTVQGKVFERCELARTLKRLGMDGYRGISLANWMCLAKWESGYNTRATNYNAGDRSTDYGIFQINSRYWCNDGKTPGASNACHLSCSALLQDNIADAVACAKRVVRDPQGIRAWVAWRNRCQNRDVRQYVQGCGV | 64.9 °C | 0 °C | 1.22 kcal/mol/K | 108 kcal/mol
5 | MKALIVLGLVLLSVTVQGKVFERCELARTLKRLGMDGYRGISLANWMCLAKWESGYNTRATNYNAGDRSTDYGIFQINSRYWCNDGKTPGADNACHLSCSALLQDNIADAVACAKRVVRDPQGIRAWVAWRNRCQNRDVRQYVQGCGV | 63.5 °C | -1.4 °C |  | 
6 | MKALIVLGLVLLSVTVQGKVFERCELARTLKRLGMDGYRGISLANWMCLAKWESGYNTRATNYNAGDRSTDYGIFQINSRYWCNDGKTPGAVNACHLSCSALLQDNIADAVACAKRVVRDPQGIRAWDAWRNRCQNRDVRQYVQGCGV | 65.4 °C | 0.5 °C |  | 
7 | MKALIVLGLVLLSVTVQGKVFERCELARTLKRLGMDGYRGISLANWMCLAKWESGYNTRATNYNAGDRSTDYGIFQINSRYWCNDGKTPGAVNACHLSCSALLQDNIADAVACAKRVVRDPQGIRAWNAWRNRCQNRDVRQYVQGCGV | 65.1 °C | 0.2 °C |  | 

Same assay, conditions: Homo sapiens; pH 2.83; Thermal; DSC; Gly-HCl 0.05 M; structure 1LZ1; whole UniProt chain shown

Row | Variant | Tm | unfolding enthalpy (calorimetric) | unfolding enthalpy (van 't Hoff)
8 | MKALIVLGLVLLSVTVQGKVFERCELARTLKRLGMDGYRGISLANWMCLAKWESGYNTRATNYNAGDRSTDYGIFQINSRYWCNDGKTPGASNACHLSCSALLQDNIADAVACAKRVVRDPQGIRAWVAWRNRCQNRDVRQYVQGCGV | 66 °C | 109 kcal/mol | 115 kcal/mol
9 | MKALIVLGLVLLSVTVQGKVFERCELARTLKRLGMDGYRGISLANWMCLAKWESGYNTRATNYNAGDRSTDYGIFQINSRYWCNDGKTPGADNACHLSCSALLQDNIADAVACAKRVVRDPQGIRAWVAWRNRCQNRDVRQYVQGCGV | 65.9 °C | 107 kcal/mol | 115 kcal/mol
10 | MKALIVLGLVLLSVTVQGKVFERCELARTLKRLGMDGYRGISLANWMCLAKWESGYNTRATNYNAGDRSTDYGIFQINSRYWCNDGKTPGAVNACHLSCSALLQDNIADAVACAKRVVRDPQGIRAWNAWRNRCQNRDVRQYVQGCGV | 67.2 °C | 113 kcal/mol | 115 kcal/mol

Same assay, conditions: Homo sapiens; pH 3.28; Thermal; DSC; Gly-HCl 0.05 M; structure 1LZ1; whole UniProt chain shown

Row | Variant | Tm | unfolding enthalpy (calorimetric) | unfolding enthalpy (van 't Hoff)
11 | MKALIVLGLVLLSVTVQGKVFERCELARTLKRLGMDGYRGISLANWMCLAKWESGYNTRATNYNAGDRSTDYGIFQINSRYWCNDGKTPGASNACHLSCSALLQDNIADAVACAKRVVRDPQGIRAWVAWRNRCQNRDVRQYVQGCGV | 72.2 °C | 117 kcal/mol | 122 kcal/mol

Same assay, conditions: Homo sapiens; pH 2.6; Thermal; DSC; Gly-HCl 0.05 M; structure 1LZ1; whole UniProt chain shown

Row | Variant | Tm | unfolding enthalpy (calorimetric) | unfolding enthalpy (van 't Hoff)
12 | MKALIVLGLVLLSVTVQGKVFERCELARTLKRLGMDGYRGISLANWMCLAKWESGYNTRATNYNAGDRSTDYGIFQINSRYWCNDGKTPGADNACHLSCSALLQDNIADAVACAKRVVRDPQGIRAWVAWRNRCQNRDVRQYVQGCGV | 61.7 °C | 103 kcal/mol | 110 kcal/mol

Same assay, conditions: Homo sapiens; pH 2.98; Thermal; DSC; Gly-HCl 0.05 M; structure 1LZ1; whole UniProt chain shown

Row | Variant | Tm | unfolding enthalpy (calorimetric) | unfolding enthalpy (van 't Hoff)
13 | MKALIVLGLVLLSVTVQGKVFERCELARTLKRLGMDGYRGISLANWMCLAKWESGYNTRATNYNAGDRSTDYGIFQINSRYWCNDGKTPGADNACHLSCSALLQDNIADAVACAKRVVRDPQGIRAWVAWRNRCQNRDVRQYVQGCGV | 68.1 °C | 112 kcal/mol | 118 kcal/mol

Same assay, conditions: Homo sapiens; pH 3.1; Thermal; DSC; Gly-HCl 0.05 M; structure 1LZ1; whole UniProt chain shown

Row | Variant | Tm | unfolding enthalpy (calorimetric) | unfolding enthalpy (van 't Hoff)
14 | MKALIVLGLVLLSVTVQGKVFERCELARTLKRLGMDGYRGISLANWMCLAKWESGYNTRATNYNAGDRSTDYGIFQINSRYWCNDGKTPGADNACHLSCSALLQDNIADAVACAKRVVRDPQGIRAWVAWRNRCQNRDVRQYVQGCGV | 70.1 °C | 115 kcal/mol | 123 kcal/mol

Same assay, conditions: Homo sapiens; pH 3.25; Thermal; DSC; Gly-HCl 0.05 M; structure 1LZ1; whole UniProt chain shown

Row | Variant | Tm | unfolding enthalpy (calorimetric) | unfolding enthalpy (van 't Hoff)
15 | MKALIVLGLVLLSVTVQGKVFERCELARTLKRLGMDGYRGISLANWMCLAKWESGYNTRATNYNAGDRSTDYGIFQINSRYWCNDGKTPGADNACHLSCSALLQDNIADAVACAKRVVRDPQGIRAWVAWRNRCQNRDVRQYVQGCGV | 72.5 °C | 120 kcal/mol | 127 kcal/mol

Same assay, conditions: Homo sapiens; pH 2.63; Thermal; DSC; Gly-HCl 0.05 M; structure 1LZ1; whole UniProt chain shown

Row | Variant | Tm | unfolding enthalpy (calorimetric) | unfolding enthalpy (van 't Hoff)
16 | MKALIVLGLVLLSVTVQGKVFERCELARTLKRLGMDGYRGISLANWMCLAKWESGYNTRATNYNAGDRSTDYGIFQINSRYWCNDGKTPGAVNACHLSCSALLQDNIADAVACAKRVVRDPQGIRAWDAWRNRCQNRDVRQYVQGCGV | 63.9 °C | 90.3 kcal/mol | 108 kcal/mol

Same assay, conditions: Homo sapiens; pH 2.84; Thermal; DSC; Gly-HCl 0.05 M; structure 1LZ1; whole UniProt chain shown

Row | Variant | Tm | unfolding enthalpy (calorimetric) | unfolding enthalpy (van 't Hoff)
17 | MKALIVLGLVLLSVTVQGKVFERCELARTLKRLGMDGYRGISLANWMCLAKWESGYNTRATNYNAGDRSTDYGIFQINSRYWCNDGKTPGAVNACHLSCSALLQDNIADAVACAKRVVRDPQGIRAWDAWRNRCQNRDVRQYVQGCGV | 67.9 °C | 96.8 kcal/mol | 112 kcal/mol

Same assay, conditions: Homo sapiens; pH 3; Thermal; DSC; Gly-HCl 0.05 M; structure 1LZ1; whole UniProt chain shown

Row | Variant | Tm | unfolding enthalpy (calorimetric) | unfolding enthalpy (van 't Hoff)
18 | MKALIVLGLVLLSVTVQGKVFERCELARTLKRLGMDGYRGISLANWMCLAKWESGYNTRATNYNAGDRSTDYGIFQINSRYWCNDGKTPGAVNACHLSCSALLQDNIADAVACAKRVVRDPQGIRAWDAWRNRCQNRDVRQYVQGCGV | 70.4 °C | 103 kcal/mol | 120 kcal/mol

Same assay, conditions: Homo sapiens; pH 3.34; Thermal; DSC; Gly-HCl 0.05 M; structure 1LZ1; whole UniProt chain shown

Row | Variant | Tm | unfolding enthalpy (calorimetric) | unfolding enthalpy (van 't Hoff)
19 | MKALIVLGLVLLSVTVQGKVFERCELARTLKRLGMDGYRGISLANWMCLAKWESGYNTRATNYNAGDRSTDYGIFQINSRYWCNDGKTPGAVNACHLSCSALLQDNIADAVACAKRVVRDPQGIRAWDAWRNRCQNRDVRQYVQGCGV | 75.5 °C | 108 kcal/mol | 125 kcal/mol

Same assay, conditions: Homo sapiens; pH 2.64; Thermal; DSC; Gly-HCl 0.05 M; structure 1LZ1; whole UniProt chain shown

Row | Variant | Tm | unfolding enthalpy (calorimetric) | unfolding enthalpy (van 't Hoff)
20 | MKALIVLGLVLLSVTVQGKVFERCELARTLKRLGMDGYRGISLANWMCLAKWESGYNTRATNYNAGDRSTDYGIFQINSRYWCNDGKTPGAVNACHLSCSALLQDNIADAVACAKRVVRDPQGIRAWNAWRNRCQNRDVRQYVQGCGV | 64 °C | 108 kcal/mol | 109 kcal/mol

Same assay, conditions: Homo sapiens; pH 3.04; Thermal; DSC; Gly-HCl 0.05 M; structure 1LZ1; whole UniProt chain shown

Row | Variant | Tm | unfolding enthalpy (calorimetric) | unfolding enthalpy (van 't Hoff)
21 | MKALIVLGLVLLSVTVQGKVFERCELARTLKRLGMDGYRGISLANWMCLAKWESGYNTRATNYNAGDRSTDYGIFQINSRYWCNDGKTPGAVNACHLSCSALLQDNIADAVACAKRVVRDPQGIRAWNAWRNRCQNRDVRQYVQGCGV | 70.6 °C | 118 kcal/mol | 118 kcal/mol

Same assay, conditions: Homo sapiens; pH 3.13; Thermal; DSC; Gly-HCl 0.05 M; structure 1LZ1; whole UniProt chain shown

Row | Variant | Tm | unfolding enthalpy (calorimetric) | unfolding enthalpy (van 't Hoff)
22 | MKALIVLGLVLLSVTVQGKVFERCELARTLKRLGMDGYRGISLANWMCLAKWESGYNTRATNYNAGDRSTDYGIFQINSRYWCNDGKTPGAVNACHLSCSALLQDNIADAVACAKRVVRDPQGIRAWNAWRNRCQNRDVRQYVQGCGV | 71.7 °C | 120 kcal/mol | 122 kcal/mol
